Paper PMC13544220, “Glycemic and bodyweight effects of GIPR coding variation reflect differences in surface expression and intrinsic functional impairment” (Science Advances, 2026)

B1: R190Q (protein)
chain: RAETGSKGQTAGELYQRWERYRRECQETLAAAEPPSGLACNGSFDMYVCWDYAAPNATARASCPWYLPWHHHVAAGFVLRQCGSDGQWGLWRDHTQCENPEKNEAFLDQRLILERLQVMYTVGYSLSLATLLLALLILSLFRRLHCTRNYIHINLFTSFMLRAAAILSQDRLLPRPGPYLGDQALALWNQALAACRTAQIVTQYCVGANYTWLLVEGVYLHSLLVLVGGSEEGHFRYYLLLGWGAPALFVIPWVIVRYLYENTQCWERNEVKAIWWIIRTPILMTILINFLIFIRILGILLSKLRTRQMRCRDYRLRLARSTLTLVPLLGVHEVVFAPVTEEQARGALRFAKLGFEIFLSSFQGFLVSVLYCFINKEVQSEIRRGWHHCRLRRSLGEEQRQLPERAFRALPSGSGPGEVPTSRGLSSGTLPGPGNEASRELESYC
modifications: left off: SNAP-tag, end not stated, kept
B2: R101H (protein)
chain: RAETGSKGQTAGELYQRWERYRRECQETLAAAEPPSGLACNGSFDMYVCWDYAAPNATARASCPWYLPWHHHVAAGFVLHQCGSDGQWGLWRDHTQCENPEKNEAFLDQRLILERLQVMYTVGYSLSLATLLLALLILSLFRRLHCTRNYIHINLFTSFMLRAAAILSRDRLLPRPGPYLGDQALALWNQALAACRTAQIVTQYCVGANYTWLLVEGVYLHSLLVLVGGSEEGHFRYYLLLGWGAPALFVIPWVIVRYLYENTQCWERNEVKAIWWIIRTPILMTILINFLIFIRILGILLSKLRTRQMRCRDYRLRLARSTLTLVPLLGVHEVVFAPVTEEQARGALRFAKLGFEIFLSSFQGFLVSVLYCFINKEVQSEIRRGWHHCRLRRSLGEEQRQLPERAFRALPSGSGPGEVPTSRGLSSGTLPGPGNEASRELESYC
B3: E288G (protein)
chain: RAETGSKGQTAGELYQRWERYRRECQETLAAAEPPSGLACNGSFDMYVCWDYAAPNATARASCPWYLPWHHHVAAGFVLRQCGSDGQWGLWRDHTQCENPEKNEAFLDQRLILERLQVMYTVGYSLSLATLLLALLILSLFRRLHCTRNYIHINLFTSFMLRAAAILSRDRLLPRPGPYLGDQALALWNQALAACRTAQIVTQYCVGANYTWLLVEGVYLHSLLVLVGGSEEGHFRYYLLLGWGAPALFVIPWVIVRYLYENTQCWGRNEVKAIWWIIRTPILMTILINFLIFIRILGILLSKLRTRQMRCRDYRLRLARSTLTLVPLLGVHEVVFAPVTEEQARGALRFAKLGFEIFLSSFQGFLVSVLYCFINKEVQSEIRRGWHHCRLRRSLGEEQRQLPERAFRALPSGSGPGEVPTSRGLSSGTLPGPGNEASRELESYC

Key:
[1] = tested on: wild-type and variant SNAP-GIPR; test: Surface SNAP-GIPR expression (SNAP-tag labelling) in INS-1 cells; type: cell-based, human; conditions: Fig 4G; Mean
Summary of the method: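 Surface GIPR is quantified from wide-field images after labelling intact transfected cells with a membrane-impermeant SNAP probe at 500 nM for 10 min at room temperature. Specific signal, corrected for nontransfected cells, is normalized to the experiment-wide average or to wild-type.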

[2] = tested on: wild-type and variant SNAP-GIPR in Gipr-/- mouse islets; test: Surface SNAP-GIPR expression in pancreatic islets; type: cell-based, human; conditions: Fig 6B
Description: Islets were purified from Gipr^−/− mice as described in the “Islet isolation and culture” section. Islets were transduced with adenoviral wild-type or variant SNAP-tagged GIPR constructs (VectorBuilder) per the manufacturer’s instructions. All variants were tested in parallel on each occasion to control for transduction efficiency. Twenty-four hours posttransduction, whole, intact islets were labeled with SNAP-Surface Alexa Fluor 647 for 15 min at 37°C. Following labeling, the islets were placed in a drop of PBS in the center of a glass-bottom MatTek dish and imaged on a Zeiss LSM 780 inverted confocal microscope fitted with a 63X/1.4 NA oil immersion objective. Receptor surface levels were quantified in Fiji using a macro using full width at half maximum (FWHM) designed by the Facility for Imaging and Light Microscopy (FILM) at Imperial College London and expressed relative to wild-type GIPR. In additional experiments, islets transduced as above and labeled with SNAP-Surface-647 were fixed in 4% paraformaldehyde, permeabilized in 0.5% (v/v) Triton X-100 in PBS (15 min), washed once with PBS and incubated in blocking buffer (PBS and 1% BSA) for 1 hour, and incubated overnight at 4°C in primary antibodies against insulin (1:50; Dako IR002, Agilent Technologies) and glucagon (1:500; G2654, Sigma-Aldrich) in blocking buffer.

[3] = tested on: wild-type and variant SNAP-GIPR; test: Constitutive and agonist-mediated internalization, reversible SNAP-tag labelling, INS-1 cells; type: cell-based, human; parameters: key to Internalisation, GIP-only / Internalisation, Vehicle / Internalisation, +GIP: % internalization: residual fluorescence after Mesna vs pre-Mesna; conditions: Mean; for +GIP internalisation (100 nM) / GIP-specific internalisation (100 nM) / Constitutive internalisation (100 nM): Fig 4G; for +GIP internalisation (100 nM) / GIP-specific internalisation (100 nM): GIP 100 nM; for Internalisation, +GIP / Internalisation, GIP-only / Internalisation, Vehicle: Fig S4C, INS-1
Summary of the method: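 % internalization = residual specific fluorescence after Mesna / pre-Mesna value. Imaging in TNE buffer pH 8.6; second image 10 min post-Mesna.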

[4] = tested on: wild-type and variant SNAP-GIPR in Gipr-/- mouse islets; test: Insulin secretion from Gipr-/- mouse islets transduced with GIPR adenoviruses; type: cell-based; conditions: Fig 6D, Gipr-/- mouse islets
Description: (§1) Isolated islets used for insulin secretion assays were treated in 1.5-ml microcentrifuge tubes. Eight-ten islets were used per well with two-three technical replicates per condition. […] At the end of the treatment, supernatants containing the secreted insulin or glucagon were collected, centrifuged at 1000g for 5 min, and transferred to fresh tubes. […] The lysates were sonicated 3× for 10 s in a water bath and centrifuged at 10,000g for 10 min, and the supernatants were collected. The samples were stored at −20°C until the insulin or glucagon concentrations were determined using an Insulin Ultra-Sensitive HTRF Assay kit (62IN2PEG, Revvity) or an HTRF Glucagon Detection Kit (62CGLPEG, Revvity) respectively, according to the manufacturer’s instructions. GraphPad Prism 9.0 was used for the generation of the standard curve and sample concentration extrapolation. The total insulin or glucagon content was calculated by adding the secreted insulin to the insulin content of the lysates, and secretion was reported as the percentage release of total. The percent secretion of islets treated with agonist was normalized to that of islets treated with vehicle and reported as a fold change.

[5] = tested on: wild-type and variant SNAP-GIPR in Gipr-/- mouse islets; test: Glucagon secretion from Gipr-/- mouse islets transduced with GIPR adenoviruses; type: cell-based; conditions: Fig S6C, Gipr-/- mouse islets
Description: as §1

[6] = tested on: wild-type and variant SNAP-GIPR; test: Single-concentration GIP cAMP response by HTRF in INS-1 cells; type: cell-based, human; conditions: Fig S3E, mean
Description: All variants were tested in parallel on each occasion to control for transfection efficiency differences between experiments.

[7] = tested on: wild-type and variant SNAP-GIPR in wild-type mouse islets; test: Insulin secretion from wild-type mouse islets transduced with GIPR adenoviruses; type: cell-based; conditions: Fig 6F
Description: as §1, with “The samples were stored at −20°C until the insulin or glucagon concentrations were determined using an Insulin Ultra-Sensitive HTRF Assay kit (62IN2PEG, Revvity) or an HTRF Glucagon Detection Kit (62CGLPEG, Revvity) respectively, according to the manufacturer’s instructions.” left out

Row | Molecule | Surface expression [1] | Surface SNAP-GIPR expression in pancreatic islets ([2]; replicate 1) | Surface SNAP-GIPR expression in pancreatic islets ([2]; replicate 2) | Surface SNAP-GIPR expression in pancreatic islets ([2]; replicate 3) | Surface SNAP-GIPR expression in pancreatic islets ([2]; replicate 4) | Surface SNAP-GIPR expression in pancreatic islets ([2]; replicate 5) | +GIP internalisation (100 nM) [3] | GIP-specific internalisation (100 nM) [3] | Constitutive internalisation (100 nM) [3] | Internalisation, +GIP [3] | Internalisation, GIP-only [3] | Internalisation, Vehicle [3] | Insulin secretion, ratio G11 + GIP / G11 ([4]; replicate 1) | Insulin secretion, ratio G11 + GIP / G11 ([4]; replicate 2) | Insulin secretion, ratio G11 + GIP / G11 ([4]; replicate 3) | Insulin secretion, ratio G11 + GIP / G11 ([4]; replicate 4) | Glucagon secretion, ratio G0.5 + GIP / G0.5 ([5]; replicate 1) | Glucagon secretion, ratio G0.5 + GIP / G0.5 ([5]; replicate 2) | Glucagon secretion, ratio G0.5 + GIP / G0.5 ([5]; replicate 3) | Glucagon secretion, ratio G0.5 + GIP / G0.5 ([5]; replicate 4) | also measured
1 | B1 | 0.5789 | 0.6777 | 0.189 | 0.9549 | -0.2055 | -0.1767 | 0.2705 | 0.0143 | 0.2562 | 45.6067 | 2.692 | 42.915 | 0.6189 | 1.413 | 1.022 | 0.3777 | 0.4628 | 1.4505 | 0.8994 | 1.147 | INS-1 cAMP (100 nM) [6]: -0.04979; Insulin secretion, ratio G11 + GIP / G11 ([7]; replicate 1): 1.037; Insulin secretion, ratio G11 + GIP / G11 ([7]; replicate 2): 0.9818; Insulin secretion, ratio G11 + GIP / G11 ([7]; replicate 3): 1.417; Insulin secretion, ratio G11 + GIP / G11 ([7]; replicate 4): 0.8398; Insulin secretion, ratio G11 + GIP / G11 ([7]; replicate 5): 1.788
2 | B2 | 0.19 | 0.3446 | 0.4042 | 0.02787 | 0.08995 | -0.05398 | 0.1025 | -0.004871 | 0.1074 | 52.1317 | -2.542 | 54.6733 | 2.4659 | 2.05 | 1.407 | 1.963 | 1.2225 | 1.611 | 0.9333 | 0.8233 | INS-1 cAMP (100 nM) [6]: -0.01312; Insulin secretion, ratio G11 + GIP / G11 ([7]; replicate 1): 1.571; Insulin secretion, ratio G11 + GIP / G11 ([7]; replicate 2): 6.006; Insulin secretion, ratio G11 + GIP / G11 ([7]; replicate 3): 2.0139; Insulin secretion, ratio G11 + GIP / G11 ([7]; replicate 4): 1.2264; Insulin secretion, ratio G11 + GIP / G11 ([7]; replicate 5): 0.7288
3 | B3 | 0.2232 | 0.1066 | 0.6008 | 0.01404 | -0.2745 | -0.1674 | 0.1101 | 0.004755 | 0.1053 | 49.4833 | 2.12 | 47.3633 | 2.545 | 0.8478 | 2.186 | 1.083 | 2.014 | 1.482 | 1.8204 | 1.525 | INS-1 cAMP (100 nM) [6]: 0.3027; Insulin secretion, ratio G11 + GIP / G11 ([7]; replicate 1): 0.8131; Insulin secretion, ratio G11 + GIP / G11 ([7]; replicate 2): 1.885; Insulin secretion, ratio G11 + GIP / G11 ([7]; replicate 3): 1.6101; Insulin secretion, ratio G11 + GIP / G11 ([7]; replicate 4): 1.127; Insulin secretion, ratio G11 + GIP / G11 ([7]; replicate 5): 2.303
